Measured values taken from patent publication US6423518B1, “Design and production of mutant 2,5-diketo-D-gluconic acid reductase enzymes with altered cofactor dependency” (Rutgers, the State University, priority 2000, dated 2002).

B1: 2,5-diketo-D-gluconic acid reductase A (Corynebacterium sp., wild type SEQ ID NO:1) variant R235T (Corynebacterium sp. ATCC 31090; R235T) (protein)
chain: MTVPSIVLNDGNSIPQLGYGVFKVPPADTQRAVEEALEVGYRHIDTAAIYGNEEGVGAAIAASGIARDDLFITTKLWNDRHDGDEPAAAIAESLAKLALDQVDLYLVHWPTPAADNYVHAWEKMIELRAAGLTRSIGVSNHLVPHLERIVAATGVVPAVNQIELHPAYQQREITDWAAAHDVKIESWGPLGQGKYDLFGAEPVTAAAAAHGKTPAQAVLRWHLQKGFVVFPKSVTRERLEENLDVFDFDLTDTEIAAIDAMDPGDGSGRVSAHPDEVD
notes: GroES fragment (N); made in house; host or cells: E. coli JM109
B2: 2,5-diketo-D-gluconic acid reductase A (Corynebacterium sp., wild type SEQ ID NO:1) variant R235G (Corynebacterium sp. ATCC 31090; R235G) (protein)
chain: MTVPSIVLNDGNSIPQLGYGVFKVPPADTQRAVEEALEVGYRHIDTAAIYGNEEGVGAAIAASGIARDDLFITTKLWNDRHDGDEPAAAIAESLAKLALDQVDLYLVHWPTPAADNYVHAWEKMIELRAAGLTRSIGVSNHLVPHLERIVAATGVVPAVNQIELHPAYQQREITDWAAAHDVKIESWGPLGQGKYDLFGAEPVTAAAAAHGKTPAQAVLRWHLQKGFVVFPKSVGRERLEENLDVFDFDLTDTEIAAIDAMDPGDGSGRVSAHPDEVD
notes: as for B1
B3: 2,5-diketo-D-gluconic acid reductase A (Corynebacterium sp., wild type SEQ ID NO:1) variant R238E (Corynebacterium sp. ATCC 31090; R238E) (protein)
chain: MTVPSIVLNDGNSIPQLGYGVFKVPPADTQRAVEEALEVGYRHIDTAAIYGNEEGVGAAIAASGIARDDLFITTKLWNDRHDGDEPAAAIAESLAKLALDQVDLYLVHWPTPAADNYVHAWEKMIELRAAGLTRSIGVSNHLVPHLERIVAATGVVPAVNQIELHPAYQQREITDWAAAHDVKIESWGPLGQGKYDLFGAEPVTAAAAAHGKTPAQAVLRWHLQKGFVVFPKSVRREELEENLDVFDFDLTDTEIAAIDAMDPGDGSGRVSAHPDEVD
notes: as for B1
B4: 2,5-diketo-D-gluconic acid reductase A, wild type, Corynebacterium sp. (ATCC Strain No. 31090; Genbank Accession No. 4699594; SEQ ID NO:1) (Corynebacterium sp. … (protein)
chain: MTVPSIVLNDGNSIPQLGYGVFKVPPADTQRAVEEALEVGYRHIDTAAIYGNEEGVGAAIAASGIARDDLFITTKLWNDRHDGDEPAAAIAESLAKLALDQVDLYLVHWPTPAADNYVHAWEKMIELRAAGLTRSIGVSNHLVPHLERIVAATGVVPAVNQIELHPAYQQREITDWAAAHDVKIESWGPLGQGKYDLFGAEPVTAAAAAHGKTPAQAVLRWHLQKGFVVFPKSVRRERLEENLDVFDFDLTDTEIAAIDAMDPGDGSGRVSAHPDEVD
notes: as for B1
B5: 2,5-diketo-D-gluconic acid reductase A (Corynebacterium sp., wild type SEQ ID NO:1) variant K232G (Corynebacterium sp. ATCC 31090; K232G) (protein)
chain: MTVPSIVLNDGNSIPQLGYGVFKVPPADTQRAVEEALEVGYRHIDTAAIYGNEEGVGAAIAASGIARDDLFITTKLWNDRHDGDEPAAAIAESLAKLALDQVDLYLVHWPTPAADNYVHAWEKMIELRAAGLTRSIGVSNHLVPHLERIVAATGVVPAVNQIELHPAYQQREITDWAAAHDVKIESWGPLGQGKYDLFGAEPVTAAAAAHGKTPAQAVLRWHLQKGFVVFPGSVRRERLEENLDVFDFDLTDTEIAAIDAMDPGDGSGRVSAHPDEVD
notes: as for B1
B6: 2,5-diketo-D-gluconic acid reductase A (Corynebacterium sp., wild type SEQ ID NO:1) variant R238H (Corynebacterium sp. ATCC 31090; R238H) (protein)
chain: MTVPSIVLNDGNSIPQLGYGVFKVPPADTQRAVEEALEVGYRHIDTAAIYGNEEGVGAAIAASGIARDDLFITTKLWNDRHDGDEPAAAIAESLAKLALDQVDLYLVHWPTPAADNYVHAWEKMIELRAAGLTRSIGVSNHLVPHLERIVAATGVVPAVNQIELHPAYQQREITDWAAAHDVKIESWGPLGQGKYDLFGAEPVTAAAAAHGKTPAQAVLRWHLQKGFVVFPKSVRREHLEENLDVFDFDLTDTEIAAIDAMDPGDGSGRVSAHPDEVD
notes: as for B1
B7: 2,5-diketo-D-gluconic acid reductase A (Corynebacterium sp., wild type SEQ ID NO:1) variant K232S (Corynebacterium sp. ATCC 31090; K232S) (protein)
chain: MTVPSIVLNDGNSIPQLGYGVFKVPPADTQRAVEEALEVGYRHIDTAAIYGNEEGVGAAIAASGIARDDLFITTKLWNDRHDGDEPAAAIAESLAKLALDQVDLYLVHWPTPAADNYVHAWEKMIELRAAGLTRSIGVSNHLVPHLERIVAATGVVPAVNQIELHPAYQQREITDWAAAHDVKIESWGPLGQGKYDLFGAEPVTAAAAAHGKTPAQAVLRWHLQKGFVVFPSSVRRERLEENLDVFDFDLTDTEIAAIDAMDPGDGSGRVSAHPDEVD
notes: as for B1
B8: 2,5-diketo-D-gluconic acid reductase A (Corynebacterium sp., wild type SEQ ID NO:1) variant K232M (Corynebacterium sp. ATCC 31090; K232M) (protein)
chain: MTVPSIVLNDGNSIPQLGYGVFKVPPADTQRAVEEALEVGYRHIDTAAIYGNEEGVGAAIAASGIARDDLFITTKLWNDRHDGDEPAAAIAESLAKLALDQVDLYLVHWPTPAADNYVHAWEKMIELRAAGLTRSIGVSNHLVPHLERIVAATGVVPAVNQIELHPAYQQREITDWAAAHDVKIESWGPLGQGKYDLFGAEPVTAAAAAHGKTPAQAVLRWHLQKGFVVFPMSVRRERLEENLDVFDFDLTDTEIAAIDAMDPGDGSGRVSAHPDEVD
notes: as for B1
B9: 2,5-diketo-D-gluconic acid reductase A (Corynebacterium sp., wild type SEQ ID NO:1) variant K232Q (Corynebacterium sp. ATCC 31090; K232Q) (protein)
chain: MTVPSIVLNDGNSIPQLGYGVFKVPPADTQRAVEEALEVGYRHIDTAAIYGNEEGVGAAIAASGIARDDLFITTKLWNDRHDGDEPAAAIAESLAKLALDQVDLYLVHWPTPAADNYVHAWEKMIELRAAGLTRSIGVSNHLVPHLERIVAATGVVPAVNQIELHPAYQQREITDWAAAHDVKIESWGPLGQGKYDLFGAEPVTAAAAAHGKTPAQAVLRWHLQKGFVVFPQSVRRERLEENLDVFDFDLTDTEIAAIDAMDPGDGSGRVSAHPDEVD
notes: as for B1

Substrate: O=C(O)C(=O)[C@@H](O)[C@H](O)C(=O)CO
Assay: purified protein, by the assay type
Type: biochemical, Corynebacterium sp.
Conditions: other: Kb = Michaelis constant for 2,5-diketo-D-gluconic acid, cofactor NADH, pH 7.0, 25° C
Procedure: The activities of the purified enzymes were assayed in 96-well microtiter plates on a plate reader.
Equation (1) is: [formula]
B=2,5-diketo-D-gluconic acid concentration;
Kb=Michaelis Constant for 2,5-diketo-D-gluconic acid;
Kia=Dissociation Constant for NADH;
Et=Total enzyme concentration.
However, the parameters could not be fit in this model with any accuracy, due to the large apparent value of KM for 2,5-diketo-D-gluconic acid, and the low concentration of 2,5-diketo-D-gluconic acid that was used. The 2,5-diketo-D-gluconic acid concentrations were not large enough to saturate the enzyme, so a further mathematical simplification was required. Preliminary fitting of the model indicated both kcat and Kb to be very large in comparison to Ka and Kia Therefore, the rate equation was simplified to the following equation (2): [formula]
This equation is only valid when B<<Kb.
This equation was then used to fit the kinetic data, with much better results.
Other comparisons can also be made between the different mutants using these parameters. […]
Cells containing plasmids for some of the mutant reductases were grown up on a 1 liter scale using a 10 ml inoculum from a saturated overnight culture. The cells were grown until absorbance of the culture at 600 nm was approximately 1.0. The cells were then induced by adding IPTG to a final concentration of 1 mM. The cells were harvested after growth at 37° C. for 4 hours. The cells were then pelleted by centrifugation and frozen for later use. At a later date, cells were thawed and lysed with the Bug Buster detergent (Novagen) containing Complete Protease Inhibitor Cocktail Tablets (Roche). The pH was lowered to 5.5 with 20 mM sodium acetate (NaOAc) and NaCl was added to a final concentration of 0.15 M. After 10 minutes with the detergent, the cell debris was removed by centrifugation, and the supernatant was loaded onto disposable chromatography columns containing a 10 ml bed volume of DEAE Cellulose (Sigma) for a batch weak ion exchange step. The resin was washed with 0.15 M NaCl, still in the presence of NaOAc, pH 5.5. The bound proteins were then eluted by two washes with 0.5 M NaCl. The eluted material was then diluted back to 0.15 M NaCl by the addition of more 20 mM NaOAc buffer. This was then loaded onto a 4.6 mmD/100mml PEEK column (PerSeptive Biosystems) containing 50 μm DEAE Ceramic HyperD F resin (BioSepra) using an FPLC system. The high performance resin was washed with 0.1 M NaCl and the bound proteins were eluted using a linear salt gradient up to 0.4 M NaCl. Active fractions were pooled and the pH was raised to 7.0 using 50 mM bis-Tris. The pooled fractions were then concentrated by ultrafiltration in a stirred cell unit using a polyethersulfone membrane with a 10,000 MW cut-off (Millipore). The concentrate was loaded onto a Superdex-75 gel filtration column (Pharmacia) using 50 mM bis-Tris pH 7.0 with an FPLC system. The active fractions were again pooled. A small sample from the pooled fractions was electrophoresed on a polyacrylamide gel in the presence of SDS in order to insure homogeneity of the final product.
NADPH and NADH were prepared fresh for each use in kinetic measurements. These reactions were performed in 96-well microtiter plates using a SpectraMax 190 plate reader (Molecular Devices). Varying amounts of cofactor and substrate were added to the wells and reaction was initiated by the addition of the mutant enzyme. The final volume of each reaction was 200 μl, the reactions were buffered with 50 mM bis-Tris pH 7.0, and the temperature was held at 25° C. […] Initial rate data was collected in each well, and a standard curve was generated each day in order to correlate the change in absorbance of the reaction to a change in concentration of cofactors. All measurements were performed in triplicate (at least) and the runs were averaged for use in kinetic modeling.

Row | Protein | kcat/Km
1 | B1 | 1.34 ± 0.28 min^−1/mm^−1
2 | B2 | 3.58 ± 0.023 min^−1/mm^−1
3 | B3 | 1.49 ± 0.24 min^−1/mm^−1
4 | B4 | 0.724 ± 0.026 min^−1/mm^−1
5 | B5 | 0.874 ± 0.028 min^−1/mm^−1
6 | B6 | 3.87 ± 0.13 min^−1/mm^−1
7 | B7 | 0.318 ± 0.018 min^−1/mm^−1

Substrate: O=C(O)C(=O)[C@@H](O)[C@H](O)C(=O)CO
Assay: purified protein, by the assay type
Type: biochemical, Corynebacterium sp.
Conditions: other: Kb = Michaelis constant for 2,5-diketo-D-gluconic acid, cofactor NADH, pH 7.0, 25° C
Remark: another data set of the same source
Procedure: Cells containing plasmids for some of the mutant reductases were grown up on a 1 liter scale using a 10 ml inoculum from a saturated overnight culture. The cells were grown until absorbance of the culture at 600 nm was approximately 1.0. The cells were then induced by adding IPTG to a final concentration of 1 mM. The cells were harvested after growth at 37° C. for 4 hours. The cells were then pelleted by centrifugation and frozen for later use. At a later date, cells were thawed and lysed with the Bug Buster detergent (Novagen) containing Complete Protease Inhibitor Cocktail Tablets (Roche). […]
These reactions were performed in 96-well microtiter plates using a SpectraMax 190 plate reader (Molecular Devices). […] Initial rate data was collected in each well, and a standard curve was generated each day in order to correlate the change in absorbance of the reaction to a change in concentration of cofactors. […]

Row | Protein | kcat/Km
8 | B8 | 0.593 ± 0.023 min^−1/mm^−1
9 | B9 | 0.634 ± 0.037 min^−1/mm^−1
